# According to patent publication US20220112244A1 (DOMPE FARMACEUTICI S P A, published 2022):
# Molecular target: IL-17A (agonist in the IL-17RA/IL17RC dimerization assay) (UniProt Q16552 24-155)
# Experiment: cell-based or functional assay
# Chain of IL-17A (agonist in the IL-17RA/IL17RC dimerization assay) (Q16552 24-155 limits assumed): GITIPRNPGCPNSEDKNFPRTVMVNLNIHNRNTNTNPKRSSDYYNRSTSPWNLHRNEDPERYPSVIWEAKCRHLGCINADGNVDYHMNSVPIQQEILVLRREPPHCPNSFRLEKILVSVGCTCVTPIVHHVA
row,IC50 in IL-17RA/IL7RC dimerization assay,Binder
1,< 0.5 µM,Ac-VHFTIPADLWEWVRR-NH2 [peptide of SEQ ID NO: 112]
2,< 1 µM,Ac-VMVTIPADLYEWIEEVPGWG-NH2 [peptide of SEQ ID NO: 24]
3,< 1 µM,Ac-VMVTIPADLYEWIEEGGTWWTEWSQ-NH2 [peptide of SEQ ID NO: 22]
4,< 10 µM,Ac-VHFTVPQELYEWVRR-NH2 [peptide of SEQ ID NO: 238]
5,< 10 µM,Ac-VHVTVPQEIYEWVRR-NH2 [peptide of SEQ ID NO: 236]
6,< 1 µM,Ac-VPGWGVMVTIPADLYEWIEE-NH2 [peptide of SEQ ID NO: 34]
7,< 10 µM,Ac-VHVTVPQELYEWVEE-NH2 [peptide of SEQ ID NO: 229]
8,< 10 µM,Ac-VHVSVPQELYEWVRR-NH2 [peptide of SEQ ID NO: 232]
9,< 1 µM,Ac-VPGKGVMVTIPADLYEWIEE-NH2 [peptide of SEQ ID NO: 36]
10,< 1 µM,Ac-VMVTIPADLYEWIEEVPGAG-NH2 [peptide of SEQ ID NO: 27]
11,< 10 µM,Ac-VKISVPADLWDWINK-NH2 [peptide of SEQ ID NO: 239]
12,< 1 µM,Ac-VPGAGVMVTIPADLYEWIEE-NH2 [peptide of SEQ ID NO: 35]
13,< 1 µM,Ac-GGTWWTEWSQVMVTIPADLYEWIEE-NH2 [peptide of SEQ ID NO: 32]
14,< 1 µM,Ac-VMVTIPADLYEWIEERRR-NH2 [peptide of SEQ ID NO: 20]
15,< 10 µM,Ac-VRVTIPQELWEWVRR-NH2 [peptide of SEQ ID NO: 233]
16,< 1 µM,Ac-RRRRRRRRVMVTIPADLYEWIEE-NH2 [peptide of SEQ ID NO: 29]
17,< 10 µM,Ac-VHVSIPQELWEWVRR-NH2 [peptide of SEQ ID NO: 230]
18,< 0.1 µM,Ac-IHVTIPAELWDWINK-NH2 [peptide of SEQ ID NO: 5]
19,< 1 µM,Ac-VMVTIPADLYEWIEEARKKAAKA-NH2 [peptide of SEQ ID NO: 21]
20,< 10 µM,Ac-VRGYVPADLWDWINK-NH2 [peptide of SEQ ID NO: 242]
21,< 0.5 µM,Ac-VHVTIPANLWEWVRR-NH2 [peptide of SEQ ID NO: 116]

row,IC50 in IL-17RA/IL7RC dimerization assay,Binder
1,< 10 µM,Ac-VHVTVPQELFEWVEE-NH2 [peptide of SEQ ID NO: 228]
2,< 0.4 µM,Ac-IMVTIPADLWDWINK-NH2 [peptide of SEQ ID NO: 3]
3,< 10 µM,Ac-VRFSVPQEIYEWVRR-NH2 [peptide of SEQ ID NO: 251]
4,< 0.4 µM,Ac-VMVTIPADLYEWIRR-NH2 [peptide of SEQ ID NO: 17]
5,< 10 µM,Ac-IHVTIPLEIFEWLQH-NH2 [peptide of SEQ ID NO: 246]
6,< 0.4 µM,Ac-VMVTIPADLYEWIEE-NH2 [peptide of SEQ ID NO: 18]
7,< 10 µM,Ac-VRVTVPQELWEWVRR-NH2 [peptide of SEQ ID NO: 235]
8,< 1 µM,Ac-VMVTIPADLYEWIEERRRRRR-NH2 [peptide of SEQ ID NO: 19]
9,< 10 µM,Ac-VEFNFPQQVYEWFDD-NH2 [peptide of SEQ ID NO: 255]
10,< 10 µM,Ac-VHVSVPQELWEWVRR-NH2 [peptide of SEQ ID NO: 231]
11,< 10 µM,Ac-VEFNFPQQVYEWVRR-NH2 [peptide of SEQ ID NO: 256]
12,< 1 µM,Ac-VMVTIPADLYEWIEETWWETWW-NH2 [peptide of SEQ ID NO: 23]
13,< 1 µM,Ac-ARKKAAKAVMVTIPADLYEWIEE-NH2 [peptide of SEQ ID NO: 31]
14,< 0.5 µM,Ac-VHVQIPADLWEWVRR-NH2 [peptide of SEQ ID NO: 113]
15,< 0.5 µM,Ac-VHVTIPQDLWEWVRR-NH2 [peptide of SEQ ID NO: 115]
16,< 10 µM,Ac-VRLYVPADLWDWINK-NH2 [peptide of SEQ ID NO: 244]
17,< 10 µM,Ac-LRIYVPADLWDWINK-NH2 [peptide of SEQ ID NO: 241]
18,< 1 µM,Ac-VMVTIPADLYEWIEERRRRRRRR-NH2 [peptide of SEQ ID NO: 30]
19,< 10 µM,Ac-LRGSVPLEIFEWLQH-NH2 [peptide of SEQ ID NO: 253]
20,< 10 µM,Ac-TWYVFNEQHQEYVRK-NH2 [peptide of SEQ ID NO: 257]
21,< 0.5 µM,Ac-VHVTFPADLWEWVRR-NH2 [peptide of SEQ ID NO: 114]

row,IC50 in IL-17RA/IL7RC dimerization assay,Binder
1,< 0.5 µM,Ac-VHVTIPADFWEWVRR-NH2 [peptide of SEQ ID NO: 117]
2,< 10 µM,Ac-VHVTIPQEIWEWVRR-NH2 [peptide of SEQ ID NO: 237]
3,< 10 µM,Ac-VRAYVPADLWDWINK-NH2 [peptide of SEQ ID NO: 243]
4,< 10 µM,Ac-IHVTIPLEIFEWAQH-NH2 [peptide of SEQ ID NO: 247]
5,< 10 µM,Ac-VHVTVPQELWEWVEE-NH2 [peptide of SEQ ID NO: 227]
6,< 10 µM,Ac-VRVTVPQELYEWVRR-NH2 [peptide of SEQ ID NO: 234]
7,< 0.5 µM,Ac-VHVTIPADLYEWVRR-NH2 [peptide of SEQ ID NO: 118]
8,< 1 µM,Ac-VMVTIPADLYEWIEEVPGKG-NH2 [peptide of SEQ ID NO: 26]
9,< 10 µM,Ac-VRIYLPADLWDWINK-NH2 [peptide of SEQ ID NO: 245]
10,< 10 µM,Ac-IHVTIPLEIFEWLQR-NH2 [peptide of SEQ ID NO: 248]
11,< 10 µM,Ac-IHVTIPGEIFEWLQH-NH2 [peptide of SEQ ID NO: 250]
12,< 10 µM,Ac-VKISVPLEIFEWLQH-NH2 [peptide of SEQ ID NO: 254]
13,< 10 µM,Ac-LRISVPADLWDWINK-NH2 [peptide of SEQ ID NO: 240]
14,< 1 µM,Ac-VMVTIPADLYEWIEEGGKETWWETW-NH2 [peptide of SEQ ID NO: 25]
15,< 10 µM,Ac-IHVTIPLEVFEWLQH-NH2 [peptide of SEQ ID NO: 249]
16,< 1 µM,Ac-VMVTIPADLYEWIEERQIKIWFQNRRMKWKK-NH2 [peptide of SEQ ID NO: 28]
17,< 1 µM,Ac-GGKETWWETWVMVTIPADLYEWIEE-NH2 [peptide of SEQ ID NO: 33]
18,< 10 µM,Ac-LRISVPLEIFEWLQH-NH2 [peptide of SEQ ID NO: 252]
19,< 0.5 µM,Ac-VHVTIPAELWEWVRR-NH2 [peptide of SEQ ID NO: 111]
